In data set [1] the target is T1, Uup (Escherichia coli, UniProt P43672 1-635). The data set can be described thus: EMSA. On the technique in general: Mobility shift assays separate free from complexed probe on a gel.
The target in data set [2] is T2, RadD (Escherichia coli, UniProt P33919 1-586).
T2 sequence: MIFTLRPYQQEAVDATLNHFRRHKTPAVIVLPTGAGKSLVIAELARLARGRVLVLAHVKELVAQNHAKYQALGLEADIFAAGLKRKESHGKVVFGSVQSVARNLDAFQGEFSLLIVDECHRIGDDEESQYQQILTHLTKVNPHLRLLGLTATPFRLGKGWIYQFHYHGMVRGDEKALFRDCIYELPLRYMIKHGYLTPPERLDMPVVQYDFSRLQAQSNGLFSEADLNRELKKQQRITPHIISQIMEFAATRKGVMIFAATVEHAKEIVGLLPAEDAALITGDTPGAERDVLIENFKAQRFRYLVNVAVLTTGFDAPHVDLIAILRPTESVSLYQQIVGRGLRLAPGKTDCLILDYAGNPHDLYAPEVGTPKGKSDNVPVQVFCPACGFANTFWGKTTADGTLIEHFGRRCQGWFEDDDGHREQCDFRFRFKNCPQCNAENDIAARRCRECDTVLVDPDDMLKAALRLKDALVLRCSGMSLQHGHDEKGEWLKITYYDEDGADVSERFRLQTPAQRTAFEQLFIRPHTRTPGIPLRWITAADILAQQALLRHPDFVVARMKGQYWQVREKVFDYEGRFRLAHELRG
The data set can be described thus: fluorescence anisotropy.

The target of data set [3] is T2, RadD. As to the kind of experiment: fluorescence anisotropy. This is another data set of the same source.
For data set [4], the target named is T1, Uup. As to the kind of experiment: EMSA. This is another data set of the same source.

Like-named read-outs stand apart in the source and are kept apart here.

T1 sequence (P43672 whole entry): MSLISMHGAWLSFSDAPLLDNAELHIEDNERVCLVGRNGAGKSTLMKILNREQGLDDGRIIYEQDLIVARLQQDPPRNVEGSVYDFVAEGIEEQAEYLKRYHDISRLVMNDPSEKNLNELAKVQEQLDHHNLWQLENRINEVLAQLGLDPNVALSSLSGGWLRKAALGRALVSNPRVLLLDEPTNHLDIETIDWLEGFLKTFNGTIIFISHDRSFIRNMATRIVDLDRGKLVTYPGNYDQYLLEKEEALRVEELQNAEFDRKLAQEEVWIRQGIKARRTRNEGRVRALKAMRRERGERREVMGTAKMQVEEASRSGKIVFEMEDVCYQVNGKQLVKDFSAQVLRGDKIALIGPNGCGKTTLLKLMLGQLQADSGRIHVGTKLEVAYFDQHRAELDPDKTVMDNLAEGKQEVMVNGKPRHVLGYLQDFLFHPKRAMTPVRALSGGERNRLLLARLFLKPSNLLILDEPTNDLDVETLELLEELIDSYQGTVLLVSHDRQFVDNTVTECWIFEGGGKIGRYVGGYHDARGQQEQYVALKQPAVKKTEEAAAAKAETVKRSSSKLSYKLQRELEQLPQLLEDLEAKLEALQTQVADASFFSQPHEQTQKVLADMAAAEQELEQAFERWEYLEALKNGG

B1: linear duplex (ZJRds1/ZJRds2) (dsDNA)
DNA 1: GCAATTAAGCTCTAAGCCATCCGCAAAAATGACCTCTTATCAAAAGGA
DNA 2: TCCTTTTGATAAGAGGTCATTTTTGCGGATGGCTAAGAGCTTAATTGC
Regarding B1, the binding result in data set [1] and in data set [2] was “no binding” each time.

B2: three-way junction (OH1/OH4/3W) (structured_DNA)
DNA 1: CCCGTGATCACCAATGCAGATTGACGAACCTTTGCCCACGT
DNA 2: GGCAGTAGGCCTAGCATGACAATCTGCATTGGTGATCACGG
DNA 3: GACGTGGGCAAAGGTTCGTCGTCATGCTAGGCCTACTGC
For B2, the binding result in data set [3] is “binds”.

B3: Holliday junction (OH1-OH4) (structured_DNA)
DNA 1: CCCGTGATCACCAATGCAGATTGACGAACCTTTGCCCACGT
DNA 2: GACGTGGGCAAAGGTTCGTCAATGGACTGACAGCTGCATGG
DNA 3: GCCATCCAGCTGTCAGTCCATTGTCATGCTAGGCCTACTGC
DNA 4: GGCAGTAGGCCTAGCATGACAATCTGCATTGGTGATCACGG
Regarding B3, the binding result in data set [2] is listed as “no binding”; in data set [4], “binds”.

Source of the values: paper PMC7145654.
